{"source": "patent US20240197828A1", "about": "“Chimeric molecule to treat sepsis and other inflammatory conditions” (THE FEINSTEIN INSTITUTES FOR MEDICAL RESEARCH, priority 2022, published 2024)", "molecules": {"B1": {"name": "milk fat globule-epidermal growth factor—factor VIII (protein, listed as Mus musculus)", "chain": "MQVSRVLAALCGMLLCASGLFAASGDFCDSSLCLNGGTCLTGQDNDIYCLCPEGFTGLVCNETERGPCSPNPCYNDAKCLVTLDTQRGDIFTEYICQCPVGYSGIHCETETNYYNLDGEYMFTTAVPNTAVPTPAPTPDLSNNLASRCSTQLGMEGGAIADSQISASSVYMGFMGLQRWGPELARLYRTGIVNAWTASNYDSKPWIQVNLLRKMRVSGVMTQGASRAGRAEYLKTFKVAYSLDGRKFEFIQDESGGDKEFLGNLDNNSLKVNMFNPTLEAQYIKLYPVSCHRGCTLRFELLGCELHGCSEPLGLKNNTIPDSQMSASSSYKTWNLRAFGWYPHLGRLDNQGKINAWTAQSNSAKEWLQVDLGTQRQVTGIITQGARDFGHIQYVASYKVAHSDDGVQWTVYEEQGSSKVFQGNLDNNSHKKNIFEKPFMARYVRVLPVSWHNRITLRLELLGC"}}, "key": {"RAW264.7 cells": {"system": "RAW264.7 cells", "assay": "eCIRP-induced cytokine release in RAW264.7 cells (ELISA of supernatants)", "type": "cell-based, mouse", "settings": "RAW264.7, rmCIRP 1 μg/mL, 4 hours", "experimental": "FIG. 2. Effects of MOP peptides on TNFα levels. RAW264.7 macrophages were cultured and treated with either volume-equivalent PBS, recombinant murine (rm) CIRP (eCIRP; 1 μg/mL), or rmCIRP with each respective peptide (10 μg/mL). After 4 hours, cell supernatants were assessed for TNFα levels by ELISA. Experiments were performed 3 times, and all data were used for analysis. Data are expressed as mean±SEM and compared by one-way ANOVA and SNK test. *p<0.05 vs. PBS, #p<0.05 vs. eCIRP.\nFIG. 4. eCIRP-induced inflammation is attenuated by MOP3. RAW264.7 cells were treated according to respective groups: PBS (volume equivalent), rmCIRP (1 μg/mL), or rmCIRP with MOP3 at increasing doses. After 4 hours, cell supernatants were analyzed for TNFα levels by ELISA. […] Data are expressed as mean #SEM and compared by one-way ANOVA and SNK test. *p<0.05 vs. PBS, #p<0.05 vs. eCIRP.\nComputational modeling was used to determine the likely domain of MFG-E8's binding to eCIRP. […] Binding of MOP3 to CIRP was quantified using Surface Plasmon Resonance (SPR) analysis. […] After 1 h, cells were fixed and analyzed for intracellular FITC-rmCIRP by flow cytometry. […] After 4 h, cell culture supernatants were analyzed for inflammatory cytokine, TNFα. […]\nThe mouse macrophage cell culture supernatants were analyzed for cytokine levels using ELISA kits (BD Biosciences, CA). […]"}, "[1]": {"system": "murine peritoneal cavity (PerC) macrophages", "assay": "eCIRP-induced cytokine release in peritoneal cavity macrophages", "type": "cell-based, mouse", "settings": "WT PerC macrophages, eCIRP treatment", "experimental": "Murine peritoneal cavity (PerC) macrophages were isolated from adult, WT mice and MFG-E8“ ” mice. Briefly, mice were euthanized using CO2 asphyxiation. Peritoneal fluid and cells were isolated using peritoneal lavage by washing ice-cold Ca^+2 and Mg^+2 free Hank's Balanced Salt Solution (HBSS) with 2% fetal bovine serum (FBS, Solon, Ohio). Total PerC macrophages were isolated by centrifugation at 400 g for 10 minutes at 4° C. After centrifugation, the cell pellet was suspended in culture media containing RPMI 1640 (Invitrogen) supplemented with 25 mM HEPES, 2 mM glutamine, 10% FBS, penicillin (100 IU/mL) and streptomycin (100 IU/mL). PerC macrophages were allowed to adhere in 6-well plates for 4 hours in humidified incubator at 37 °C. […] Adhered PerC macrophages were then mechanically detached from the plate and counted. […]\nThe mouse macrophage cell culture supernatants were analyzed for cytokine levels using ELISA kits (BD Biosciences, CA). […] TNF-α and IL-6 levels were measured in cell supernatants by ELISA in accordance with respective manufacturers' instructions (BD Biosciences, CA). Blood was collected, centrifuged at 4,000 RPM for 10 minutes, and sera was separated and analyzed for cytokine levels using ELISA kits (BD Biosciences, CA). TNF-α and IL-6 levels in the serum were measured by ELISA in accordance with respective manufacturers' instructions."}}, "data": [{"molecule": "B1", "values": [{"measurement": "IL-6 levels in cell supernatants", "setting": "RAW264.7 cells; vs eCIRP alone", "value": "attenuated these levels in a dose-dependent manner"}, {"measurement": "TNFα levels in cell supernatants", "setting": "RAW264.7 cells; vs rmCIRP alone", "value": "attenuated these levels in a dose-dependent manner"}, {"measurement": "IL-6 levels in cell supernatants", "setting": "[1]", "value": "reduced levels"}, {"measurement": "TNFα levels in cell supernatants", "setting": "[1]", "value": "reduced levels"}]}]}
